Test results from patent US20240228604A1 (ALCHEMAB THERAPEUTICS, published 2024).

Columns and labels:
Assay in all cases: Retrogenix cell microarray, fixed HEK293 cells
[1] = target: T1, full-length human UNC5A on fixed HEK293 cells (Retrogenix panel) (human, UniProt Q6ZN44 26-842)
T1 construct: whole, on cells
T1 sequence (looked up): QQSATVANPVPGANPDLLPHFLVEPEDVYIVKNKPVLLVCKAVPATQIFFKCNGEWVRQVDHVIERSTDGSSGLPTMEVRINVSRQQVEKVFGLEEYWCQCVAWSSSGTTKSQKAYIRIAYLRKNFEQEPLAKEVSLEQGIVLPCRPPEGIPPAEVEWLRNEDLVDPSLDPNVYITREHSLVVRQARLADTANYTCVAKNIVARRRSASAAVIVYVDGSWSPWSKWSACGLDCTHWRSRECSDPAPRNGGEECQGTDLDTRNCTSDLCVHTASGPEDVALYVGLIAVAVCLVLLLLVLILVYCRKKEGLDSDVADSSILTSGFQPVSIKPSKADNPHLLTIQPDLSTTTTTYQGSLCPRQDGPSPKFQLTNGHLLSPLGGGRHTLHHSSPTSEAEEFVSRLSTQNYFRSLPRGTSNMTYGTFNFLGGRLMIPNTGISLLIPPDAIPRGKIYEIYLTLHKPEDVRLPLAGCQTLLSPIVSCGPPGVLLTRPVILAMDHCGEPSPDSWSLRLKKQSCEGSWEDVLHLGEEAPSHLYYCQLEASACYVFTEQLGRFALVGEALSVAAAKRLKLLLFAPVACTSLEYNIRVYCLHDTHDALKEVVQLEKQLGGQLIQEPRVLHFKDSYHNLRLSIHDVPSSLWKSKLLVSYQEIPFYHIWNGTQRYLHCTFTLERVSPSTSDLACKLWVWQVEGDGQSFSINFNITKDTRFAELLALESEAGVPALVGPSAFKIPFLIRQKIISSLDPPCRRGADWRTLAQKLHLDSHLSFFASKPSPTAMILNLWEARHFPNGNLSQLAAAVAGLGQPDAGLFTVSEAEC

[2] = target: T2, full-length human UNC5B on fixed HEK293 cells (Retrogenix panel) (human, UniProt Q8IZJ1 27-945)
T2 construct: whole, on cells

[3] = target: T3, full-length human NEO1 on fixed HEK293 cells (Retrogenix panel) (human, UniProt Q92859 34-1461)
T3 construct: whole, on cells; also called neogenin
T3 sequence (looked up): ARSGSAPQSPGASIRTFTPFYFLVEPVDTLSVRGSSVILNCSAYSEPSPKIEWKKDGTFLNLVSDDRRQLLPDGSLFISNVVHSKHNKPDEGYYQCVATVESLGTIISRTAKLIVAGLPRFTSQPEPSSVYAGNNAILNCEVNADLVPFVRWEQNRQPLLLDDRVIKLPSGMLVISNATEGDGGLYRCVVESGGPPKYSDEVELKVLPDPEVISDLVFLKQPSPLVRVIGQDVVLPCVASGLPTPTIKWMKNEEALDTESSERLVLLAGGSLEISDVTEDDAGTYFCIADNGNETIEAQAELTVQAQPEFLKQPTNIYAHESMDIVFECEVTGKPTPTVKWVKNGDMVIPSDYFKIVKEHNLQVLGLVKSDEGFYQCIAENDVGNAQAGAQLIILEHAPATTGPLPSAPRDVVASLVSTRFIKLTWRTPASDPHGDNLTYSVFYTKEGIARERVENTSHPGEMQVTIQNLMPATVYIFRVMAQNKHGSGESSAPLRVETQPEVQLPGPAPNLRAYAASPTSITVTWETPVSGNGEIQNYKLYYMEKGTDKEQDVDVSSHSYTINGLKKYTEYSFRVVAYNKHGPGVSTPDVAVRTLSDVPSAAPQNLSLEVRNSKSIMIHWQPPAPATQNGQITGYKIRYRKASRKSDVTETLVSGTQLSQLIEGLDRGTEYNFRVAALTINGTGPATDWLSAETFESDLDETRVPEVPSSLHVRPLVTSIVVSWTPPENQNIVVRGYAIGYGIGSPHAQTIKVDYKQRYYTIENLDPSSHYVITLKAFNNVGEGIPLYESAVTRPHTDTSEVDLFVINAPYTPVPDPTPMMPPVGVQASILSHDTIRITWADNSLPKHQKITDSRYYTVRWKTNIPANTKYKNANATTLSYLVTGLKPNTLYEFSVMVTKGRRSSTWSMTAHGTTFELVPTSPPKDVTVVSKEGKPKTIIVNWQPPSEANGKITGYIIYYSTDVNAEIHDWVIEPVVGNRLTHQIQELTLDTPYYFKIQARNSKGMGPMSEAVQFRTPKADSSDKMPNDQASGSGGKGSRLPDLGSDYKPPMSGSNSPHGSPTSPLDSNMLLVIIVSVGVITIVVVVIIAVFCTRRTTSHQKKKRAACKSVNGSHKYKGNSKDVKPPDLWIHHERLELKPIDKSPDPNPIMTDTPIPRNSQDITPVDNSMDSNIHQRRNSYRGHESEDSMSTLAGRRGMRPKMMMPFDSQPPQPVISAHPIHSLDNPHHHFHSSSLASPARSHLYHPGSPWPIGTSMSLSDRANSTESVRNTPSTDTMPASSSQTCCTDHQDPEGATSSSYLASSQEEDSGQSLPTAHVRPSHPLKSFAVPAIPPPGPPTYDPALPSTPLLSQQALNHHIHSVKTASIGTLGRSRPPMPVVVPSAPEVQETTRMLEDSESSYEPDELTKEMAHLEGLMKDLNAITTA

- binding result [1]: no binding
- binding result [2]: no binding
- binding result [3]: no binding
B1: ATL_0006178 (antibody, IgG1, V domains shown)
VH: QVQLQESGPGLVKPSETLSLTCTVSGGSISSYFWSWIRQPPGKGLEWIGYIHYSGTTNQNPSLKSRVTISVDKSKNQFSLKLSSVTAADTAVYYCARGRGMATLPFDYWGQGTLVTVSS
VL: not shown
notes: Combination variant of ATL_5262 (T82K, Q67 kept, N58Y); also called ATL_6178; ATL6178
